The data set is described as follows: total protein half-life in vivo (active degradation + dilution); higher = more stable protein.
The mark [1] stands for this setting: E. coli NCM3722 delta-clpP delta-lon delta-hslV, growth: N-lim chemostat, doubling time 6 h.
Setting [2] is: E. coli NCM3722 delta-clpP, growth: N-lim chemostat, doubling time 6 h.
[3] abbreviates: E. coli NCM3722 delta-hslV, growth: N-lim chemostat, doubling time 6 h.
Setting [4] is: E. coli NCM3722 delta-lon, growth: N-lim chemostat, doubling time 6 h.
[5] abbreviates: E. coli NCM3722 delta-smpB, growth: N-lim chemostat, doubling time 6 h.
The mark [6] stands for this setting: wild type E. coli NCM3722, growth: C-lim chemostat, doubling time 3 h.
Where [7] appears, read: wild type E. coli NCM3722, growth: C-lim chemostat, doubling time 6 h.
Setting [8] is: wild type E. coli NCM3722, growth: N-lim chemostat, doubling time 6 h.
The mark [9] stands for this setting: wild type E. coli NCM3722, growth: N-lim chemostat, doubling time 12 h.
Setting [10] is: wild type E. coli NCM3722, growth: P-lim chemostat, doubling time 12 h.
The mark [11] stands for this setting: wild type E. coli NCM3722, growth: C-lim chemostat, doubling time 12 h.
Where [12] appears, read: wild type E. coli NCM3722, growth: P-lim chemostat, doubling time 6 h.

± gives the standard deviation of the averaged measurements.

Take “MTKYALVGDVGGTNARLALCDIASGEISQAKTYSGLDYPSLEAVIRVYLEEHKVEVKDGCIAIACPITGDWVAMTNHTWAFSIAEMKKNLGFSHLEIINDFTAVSMAIPMLKKEHLIQFGGAEPVEGKPIAVYGAGTGLGVAHLVHVDKRWVSLPGEGGHVDFAPNSEEEAIILEILRAEIGHVSAERVLSGPGLVNLYRAIVKADNRLPENLKPKDITERALADSCTDCRRALSLFCVIMGRFGGNLALNLGTFGGVFIAGGIVPRFLEFFKASGFRAAFEDKGRFKEYVHDIPVYLIVHDNPGLLGSGAHLRQTLGHIL [P0A6V8]”: the “total protein half-life in vivo” value is, setting by setting: under setting [1], 5.167 ± 0.05 h; under setting [2], 5.45 ± 0.21 h; under setting [3], 4.8 ± 0.84 h; under setting [4], 5.7 ± 0.3 h; under setting [5], 5.16 ± 0.58 h; under setting [6], 2.78 ± 0.35 h. The “total protein half-life in vivo” value runs as follows: under setting [7], 6.3 ± 0.76 h; under setting [8], 5 ± 1.4 h; under setting [9], 9.21 ± 0.77 h; under setting [10], 15.2 ± 1.1 h.
Consider “MTTFHSLTVAKVESETRDAVTITFAVPQPLQEAYRFRPGQHLTLKASFDGEELRRCYSICRSYLPGEISVAVKAIEGGRFSRYAREHIRQGMTLEVMVPQGHFGYQPQAERQGRYLAIAAGSGITPMLAIIATTLQTEPESQFTLIYGNRTSQSMMFRQALADLKDKYPQRLQLLCIFSQETLDSDLLHGRIDGEKLQSLGASLINFRLYDEAFICGPAAMMDDAETALKALGMPDKTIHLERFNTPGTRVKRSVNVQSDGQKVTVRQDGRDREIVLNADDESILDAALRQGADLPYACKGGVCATCKCKVLRGKVAMETNYSLEPDELAAGYVLSCQALPLTSDVVVDFDAKGMA”, for which the “total protein half-life in vivo” value under setting [1] was 4.66 ± 0.67 h.
Take “MTVETQLNPTQPVNQQIYRILRRDIVHCLIAPGTPLSEKEVSVRFNVSRQPVREAFIKLAENGLIQIRPQRGSYVNKISMAQVRNGSFIRQAIECAVARRAASMITESQCYQLEQNLHQQRIAIERKQLDDFFELDDNFHQLLTQIADCQLAWDTIENLKATVDRVRYMSFDHVSPPEMLLRQHLDIFSALQKRDGDAVERAMTQHLQEISESVRQIRQENSDWFSEE [P0ACM2]”: the “total protein half-life in vivo” value reads like this: under setting [1], 6.15 ± 0.24 h; under setting [2], 7.72 h; under setting [3], 5.98 ± 0.4 h; under setting [4], 5.9 ± 0.9 h; under setting [5], 4.12 ± 1.4 h; under setting [6], 3.42 ± 0.53 h. Also, the “total protein half-life in vivo” value under setting [7] came out at 6.44 ± 1.2 h; the “total protein half-life in vivo” value under setting [11] worked out at 10.2 ± 0.65 h; the “total protein half-life in vivo” value under setting [8] stood at 5.71 ± 0.13 h; the “total protein half-life in vivo” value under setting [9] came to 11.7 ± 1.3 h; the “total protein half-life in vivo” value under setting [12] is 5.18 ± 0.51 h; the “total protein half-life in vivo” value under setting [10] turned out to be 9.7 ± 1.7 h.
In the case of “MLEQMGIAAKQASYKLAQLSSREKNRVLEKIADELEAQSEIILNANAQDVADARANGLSEAMLDRLALTPARLKGIADDVRQVCNLADPVGQVIDGGVLDSGLRLERRRVPLGVIGVIYEARPNVTVDVASLCLKTGNAVILRGGKETCRTNAATVAVIQDALKSCGLPAGAVQAIDNPDRALVSEMLRMDKYIDMLIPRGGAGLHKLCREQSTIPVITGGIGVCHIYVDESVEIAEALKVIVNAKTQRPSTCNTVETLLVNKNIADSFLPALSKQMAESGVTLHADAAALAQLQAGPAKVVAVKAEEYDDEFLSLDLNVKIVSDLDDAIAHIREHGTQHSDAILTRDMRNAQRFVNEVDSSAVYVNASTRFTDGGQFGLGAEVAVSTQKLHARGPMGLEALTTYKWIGIGDYTIRA”, the “total protein half-life in vivo” value reads like this: under setting [1], 5.127 ± 0.031 h; under setting [2], 4.65 ± 0.2 h; under setting [3], 4.64 ± 0.14 h; under setting [4], 4.75 ± 0.29 h; under setting [5], 4.5 ± 0.067 h; under setting [6], 3.12 ± 0.3 h. In addition, the “total protein half-life in vivo” value reads like this: under setting [7], 5.68 ± 0.2 h; under setting [11], 10.9 ± 0.47 h; under setting [8], 4.65 ± 0.12 h; under setting [9], 7.82 ± 0.18 h; under setting [12], 5.31 ± 0.65 h; under setting [10], 12.15 ± 0.096 h.
Consider “MKRLHKRFLLATFCALFTATLQAADVTITVNGRVVAKPCTIQTKEANVNLGDLYTRNLQQPGSASGWHNITLSLTDCPVETSAVTAIVTGSTDNTGYYKNEGTAENIQIELRDDQDAALKNGDSKTVIVDEITRNAQFPLKARAITVNGNASQGTIEALINVIYTWQ”, for which, under setting [5], the “total protein half-life in vivo” value came out at 5.55 h.
Take “MQFNIPTLLTLFRVILIPFFVLVFYLPVTWSPFAAALIFCVAAVTDWFDGFLARRWNQSTRFGAFLDPVADKVLVAIAMVLVTEHYHSWWVTLPAATMIAREIIISALREWMAELGKRSSVAVSWIGKVKTTAQMVALAWLLWRPNIWVEYAGIALFFVAAVLTLWSMLQYLSAARADLLDQ [P0ABF8]”: the “total protein half-life in vivo” value was found to be 7.82 h under setting [1]; 6.476 ± 0.013 h under setting [2]; 5.76 h under setting [4]; 5.9 h under setting [5]; 3.1 ± 0.097 h under setting [6]; 5.64 ± 0.51 h under setting [7]. The “total protein half-life in vivo” value reads like this: under setting [11], 15.4 h; under setting [9], 9.62 ± 4.9 h; under setting [12], 6.75 ± 1.5 h; under setting [10], 12.1 ± 1.3 h.
Regarding “MDLSLLKALSEADAIASSEQEVRQILLEEADRLQKEVRFDGLGSVLIRLNESTGPKVMICAHMDEVGFMVRSISREGAIDVLPVGNVRMAARQLQPVRITTREECKIPGLLDGDRQGNDVSAMRVDIGARSYDEVMQAGIRPGDRVTFDTTFQVLPHQRVMGKAFDDRLGCYLLVTLLRELHDAELPAEVWLVASSSEEVGLRGGQTATRAVSPDVAIVLDTACWAKNFDYGAANHRQIGNGPMLVLSDKSLIAPPKLTAWVETVAAEIGVPLQADMFSNGGTDGGAVHLTGTGVPTVVMGPATRHGHCAASIADCRDILQMQQLLSALIQRLTRETVVQLTDFR”, the “total protein half-life in vivo” value by setting is: under setting [1], 5.79 h; under setting [6], 2.18 h.

Values taken from the supplement of paper PMC11246515.
